In PMC10781821, “Novel recombinant aminoacylase from Paraburkholderia monticola capable of N-acyl-amino acid synthesis” (Applied Microbiology and Biotechnology, 2024) one finds Km data, which are given here for one protein.

What is called Km is the concentration of substrate that gives half-maximal velocity.

Substrate in data set [1]: CCCCCCCCCCCC(=O)N[C@@H](Cc1ccccc1)C(=O)O
Description: ninhydrin assay of released amino acid, initial rates. In kind it is biochemical, Paraburkholderia monticola. Particulars: hydrolysis, 100 mM Na-borate pH 9.0, Zn2+ (50 µM), 30 °C in Results (Methods print 50 °C).

Substrate in data set [2]: CCCCCCCCCCCC(=O)N[C@@H](C)C(=O)O
Described as above. The format is biochemical, Paraburkholderia monticola. Particulars: hydrolysis, 100 mM Na-borate pH 9.0, Zn2+ (50 µM), 30 °C in Results (Methods print 50 °C).

B1: PmAcy (N-terminally StrepII-tagged aminoacylase) (Paraburkholderia monticola) (protein)
chain: MLSLVLPGLSQAQSTLPPAPPAKPVLFTNFRLFDGKSMTLRDGLYMVVEGNSISQLGQGQPASVEGKTLVDCGGKVMMPGLIDMHWHALLAALPIQVILQSDIAFVHLAASAEAERTLLRGFTTIRDAGGPSFALKQAIDSGMISGPRIYPSGAMITTTGGHGDFRPLTDLPRTSSQVTQGERDGGFAIADTEDEMRVRVREQFIQGATQIKLVGSGGVSTPRSPLDMLTFTEKQLRAAVETAADWGTYVLSHAYTPEAVQRSVAAGAQCIEHGHLMDDKTAALMAKNGTWLSTQPFISEEDVGPLAPQSREKFLEVVAGTDNAFRLARKHGIKVAFGTDLLFSQAIATRQGTMLTHMKRWYSPAEALGMATGTNGQLLALTGKRNPYPRRLGVLEEGAYADLLLVDGNPLENLDLIANPEQNLRIVMKDGKFYKNTLKA
notes: full-length codon-optimised gene, N-terminal StrepII-tag with serine-glycine linker kept; E. coli BL21 (DE3) pGro7 (GroEL/S)
B1: the values for the Michaelis-Menten constant (Km) in data set [1] and in data set [2] were 210 µM and 1950 µM, respectively.
